Measurements: PMC9378758

Target: Chikungunya virus (CHIKV) strain S27 E1 glycoprotein (Chikungunya virus strain S27)
Test: cryo-EM structure; cryo-ET with sub-tomogram averaging (PEET) of 591 protein spikes on liposomes after completed fusion with CHIKV at low pH, late time points, room temperature; 27.2 Å at 0.5 FSC; 3-fold symmetry seen before it was imposed

Chikungunya virus (CHIKV) strain S27 E1 glycoprotein (natural protein)
stoichiometry N: 3
